The test deals with E. coli EF-G (Δ529SNP531) (E. coli) (UniProt P0A6M8). Kind of test: ITC; performed as described previously (ref 11); conditions not given here.

FusB (natural protein) had a Kd of 5.8 µM. That is a single-digit micromolar value.

For orientation: Kd means the concentration at which binding is half-saturated. A lower Kd goes with higher affinity.
